US20250250330A1
pEC50: −log10 of the molar value. “And” between values parts separate entries of the source, which are not always exact repeats. Identical values can stand only once.

Molecular target: Recombinant human VEGF165 (Peprotech, Cat #100-20) (human) (UniProt P15692)
Assay: ELISA; rhVEGF165 coated, anti-human IgG Fc-HRP detection

Recombinant human VEGF165 (Peprotech, Cat #100-20) (human), sequence (P15692 other isoform, or with tags, fused parts or gaps limits assumed): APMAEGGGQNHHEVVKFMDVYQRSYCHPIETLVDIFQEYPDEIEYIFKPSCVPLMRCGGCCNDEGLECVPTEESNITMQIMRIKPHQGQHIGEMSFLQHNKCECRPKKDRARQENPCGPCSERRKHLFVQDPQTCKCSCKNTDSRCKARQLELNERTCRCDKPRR
Aflibercept (Fc fusion), sequence (chain): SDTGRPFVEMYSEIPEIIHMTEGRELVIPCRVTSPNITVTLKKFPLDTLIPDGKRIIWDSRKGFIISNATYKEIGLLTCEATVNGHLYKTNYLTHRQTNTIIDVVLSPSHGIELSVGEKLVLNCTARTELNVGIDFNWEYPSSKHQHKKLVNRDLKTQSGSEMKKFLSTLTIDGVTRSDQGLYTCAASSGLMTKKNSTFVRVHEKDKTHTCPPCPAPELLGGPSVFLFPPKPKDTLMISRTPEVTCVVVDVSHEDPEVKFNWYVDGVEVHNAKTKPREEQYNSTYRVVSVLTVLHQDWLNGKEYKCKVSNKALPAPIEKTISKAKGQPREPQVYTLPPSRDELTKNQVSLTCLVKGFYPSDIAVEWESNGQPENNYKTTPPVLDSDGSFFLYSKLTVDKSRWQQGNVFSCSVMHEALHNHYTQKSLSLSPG

pEC50: 10.29 and 10.13 and 10.40
Substance: Aflibercept (Fc fusion)
